Assay results reported in patent publication US20150344570A1 (published 2015).

T1: FcγRIIb (human, UniProt P31994 43-217)
T1 construct: extracellular domain; also called FcgRIIb; 2b; not shown: His tag at the C terminus
T1 sequence (looked up): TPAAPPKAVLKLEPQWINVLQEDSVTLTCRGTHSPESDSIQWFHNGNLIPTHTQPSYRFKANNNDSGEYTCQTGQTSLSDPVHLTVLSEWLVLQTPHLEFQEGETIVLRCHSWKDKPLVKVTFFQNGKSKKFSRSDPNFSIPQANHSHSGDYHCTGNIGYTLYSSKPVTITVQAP

T2: FcγRIIa R (human, UniProt P12318 34-217)
T2 construct: extracellular domain; also called FcgRIIa R; FcγRIIa type R; not shown: His tag at the C terminus
T2 sequence (looked up): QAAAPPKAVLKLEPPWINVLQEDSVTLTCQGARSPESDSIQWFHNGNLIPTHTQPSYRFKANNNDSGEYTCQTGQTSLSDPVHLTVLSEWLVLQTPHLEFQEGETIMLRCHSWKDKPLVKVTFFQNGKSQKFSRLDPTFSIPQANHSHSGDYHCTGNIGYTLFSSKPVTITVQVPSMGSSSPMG

T3: FcγRIIb extracellular domain with C-terminal His tag (human, UniProt P31994 43-217)
T3 construct: extracellular domain; Expressed in FreeStyle293 cells; analyte in the SPR assay; also called FcgRIIb; 2b
T3 sequence (looked up): T1 sequence (looked up)

B1: GpH7-A5/GpH7-B3 variant G236_03V/GpL16-k0 (He Ab) (antibody, human IgG1, kappa)
heavy 1: not shown
heavy 2: not shown
light: DIVMTQSPLSLPVTPGEPASISCQASESLVHSNRNTYLHWYLQKPGQSPQLLIYKVSNRFSGVPDRFSGSGSGTDFTLKISRVEAEDVGVYYCSQNTHVPPTFGQGTKVEIERTVAAPSVFIFPPSDEQLKSGTASVVCLLNNFYPREAKVQWKVDNALQSGNSQESVTEQDSKDSTYSLSSTLTLSKADYEKHKVYACEVTHQGLSSPVTKSFNRGEC
notes: He Ab: mutation in one H chain only
B2: GpH7-A5/GpH7-B3 variant G236_04F/GpL16-k0 (He Ab) (antibody, human IgG1, kappa)
heavy 1: not shown
heavy 2: not shown
light: B1 light
notes: as for B1
B3: GpH7-A5/GpH7-B3 variant G236_05P/GpL16-k0 (He Ab) (antibody, human IgG1, kappa)
heavy 1: not shown
heavy 2: not shown
light: B1 light
notes: as for B1
B4: GpH7-A5/GpH7-B3 variant L235_12R/GpL16-k0 (He Ab) (antibody, human IgG1, kappa)
heavy 1: not shown
heavy 2: not shown
light: B1 light
notes: as for B1
B5: GpH7-A5/GpH7-B3 variant P238_01G/GpL16-k0 (antibody, human IgG1, kappa)
heavy 1: not shown
heavy 2: not shown
light: B1 light
notes: Heterodimerized anti-glypican-3 IgG1; mutation in one H chain only; also called He Ab
B6: GpH7-A5/GpH7-B3 variant P238_13S/GpL16-k0 (antibody, human IgG1, kappa)
heavy 1: not shown
heavy 2: not shown
light: B1 light
notes: as for B5
B7: GpH7-A5/GpH7-B3 variant D265_03V/GpL16-k0 (antibody, human IgG1, kappa)
heavy 1: not shown
heavy 2: not shown
light: B1 light
notes: as for B5
B8: GpH7-A5/GpH7-B3 variant G236_16H/GpL16-k0 (antibody, human IgG1, kappa)
heavy 1: not shown
heavy 2: not shown
light: B1 light
notes: as for B5
B9: GpH7-A5/GpH7-B3 variant S239_15Y/GpL16-k0 (antibody, human IgG1, kappa)
heavy 1: not shown
heavy 2: not shown
light: B1 light
notes: as for B5
B10: GpH7-A5/GpH7-B3 variant S239_04F/GpL16-k0 (antibody, human IgG1, kappa)
heavy 1: not shown
heavy 2: not shown
light: B1 light
notes: as for B5
B11: GpH7-A5/GpH7-B3 variant G237_03V/GpL16-k0 (antibody, human IgG1, kappa)
heavy 1: not shown
heavy 2: not shown
light: B1 light
notes: as for B5
B12: GpH7-A5/GpH7-B3 variant D265_02A/GpL16-k0 (antibody, human IgG1, kappa)
heavy 1: not shown
heavy 2: not shown
light: B1 light
notes: as for B5
B13: GpH7-A5/GpH7-B3 variant D265_06M/GpL16-k0 (antibody, human IgG1, kappa)
heavy 1: not shown
heavy 2: not shown
light: B1 light
notes: as for B5
B14: GpH7-A5/GpH7-B3 variant P238_02A/GpL16-k0 (antibody, human IgG1, kappa)
heavy 1: not shown
heavy 2: not shown
light: B1 light
notes: as for B5
B15: GpH7-A5/GpH7-B3 variant D265_01G/GpL16-k0 (antibody, human IgG1, kappa)
heavy 1: not shown
heavy 2: not shown
light: B1 light
notes: as for B5
B16: GpH7-A5/GpH7-B3 variant S239_16H/GpL16-k0 (antibody, human IgG1, kappa)
heavy 1: not shown
heavy 2: not shown
light: B1 light
notes: as for B5
B17: GpH7-A5/GpH7-B3 variant G237_14T/GpL16-k0 (antibody, human IgG1, kappa)
heavy 1: not shown
heavy 2: not shown
light: B1 light
notes: as for B5
B18: GpH7-A5/GpH7-B3 variant S239_11K/GpL16-k0 (antibody, human IgG1, kappa)
heavy 1: not shown
heavy 2: not shown
light: B1 light
notes: as for B5
B19: GpH7-A5/GpH7-B3 variant P238_14T/GpL16-k0 (antibody, human IgG1, kappa)
heavy 1: not shown
heavy 2: not shown
light: B1 light
notes: as for B5
B20: GpH7-A5/GpH7-B3 variant P238_18N/GpL16-k0 (antibody, human IgG1, kappa)
heavy 1: not shown
heavy 2: not shown
light: B1 light
notes: as for B5
B21: GpH7-A5/GpH7-B3 variant D265_07I/GpL16-k0 (antibody, human IgG1, kappa)
heavy 1: not shown
heavy 2: not shown
light: B1 light
notes: as for B5
B22: GpH7-A5/GpH7-B3 variant G236_19Q/GpL16-k0 (antibody, human IgG1, kappa)
heavy 1: not shown
heavy 2: not shown
light: B1 light
notes: as for B5
B23: GpH7-A5/GpH7-B3 variant G236_20W/GpL16-k0 (antibody, human IgG1, kappa)
heavy 1: not shown
heavy 2: not shown
light: B1 light
notes: as for B5
B24: GpH7-A5/GpH7-B3 variant D265_08L/GpL16-k0 (antibody, human IgG1, kappa)
heavy 1: not shown
heavy 2: not shown
light: B1 light
notes: as for B5
B25: GpH7-A5/GpH7-B3 variant G236_15Y/GpL16-k0 (antibody, human IgG1, kappa)
heavy 1: not shown
heavy 2: not shown
light: B1 light
notes: as for B5
B26: GpH7-A5/GpH7-B3 variant P238_11K/GpL16-k0 (antibody, human IgG1, kappa)
heavy 1: not shown
heavy 2: not shown
light: B1 light
notes: as for B5
B27: GpH7-A5/GpH7-B3 variant D265_04F/GpL16-k0 (antibody, human IgG1, kappa)
heavy 1: not shown
heavy 2: not shown
light: B1 light
notes: as for B5
B28: GpH7-A5/GpH7-B3 variant P238_12R/GpL16-k0 (antibody, human IgG1, kappa)
heavy 1: not shown
heavy 2: not shown
light: B1 light
notes: as for B5
B29: GpH7-A5/GpH7-B3 variant G237_16H/GpL16-k0 (antibody, human IgG1, kappa)
heavy 1: not shown
heavy 2: not shown
light: B1 light
notes: as for B5
B30: GpH7-A5/GpH7-B3 variant S239_12R/GpL16-k0 (antibody, human IgG1, kappa)
heavy 1: not shown
heavy 2: not shown
light: B1 light
notes: as for B5
B31: GpH7-A5/GpH7-B3 variant G237_05P/GpL16-k0 (antibody, human IgG1, kappa)
heavy 1: not shown
heavy 2: not shown
light: B1 light
notes: as for B5

These binders were tested against T4, FcγRIa extracellular domain with C-terminal His tag (human, UniProt P12314 16-292) (assay: SPR (Biacore); He/Con_1a divided by He/Con_2b (FcγRIa against FcγRIIb)).
T4 construct: extracellular domain; Expressed in FreeStyle293 cells; analyte in the SPR assay; also called FcgRI; 1a
T4 sequence (P12314 16-292): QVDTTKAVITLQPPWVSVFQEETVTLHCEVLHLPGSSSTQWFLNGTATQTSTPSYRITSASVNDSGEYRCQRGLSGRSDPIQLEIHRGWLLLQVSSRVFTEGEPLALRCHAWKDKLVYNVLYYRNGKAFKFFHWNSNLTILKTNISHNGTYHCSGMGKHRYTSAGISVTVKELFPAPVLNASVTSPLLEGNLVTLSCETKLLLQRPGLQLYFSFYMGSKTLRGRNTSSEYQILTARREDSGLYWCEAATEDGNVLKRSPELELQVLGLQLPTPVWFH

| He_1a/2b (Ia/IIb) | Binder |
| --- | --- |
| 2.55 ratio | B1 |
| 2.45 ratio | B2 |
| 4.05 ratio | B3 |
| 8.12 ratio | B4 |

What follows are binders tested against T1, FcγRIIb (assay: SPR (Biacore T100), antibody captured on antigen peptide chip, FcγR as analyte; binding relative to GpH7-A5/GpH7-B3/GpL16-k0 = 100).
Description: (§1) The heterodimerized antibodies He Abs in which one of the H chains was introduced with an alteration were assayed for their binding activities to each activating FcγR and inhibitory FcγR according to the method described in Example 4. […] The activating FcγRs in FIGS. 26, 27, 28, and 29 are FcγRIa, FcγRIIa (R), FcγRIIa (H), and FcγRIIIa, respectively.
(§2) Analysis of interaction between objective antibody and the FcγR was carried out using Biacore T100 (GE Healthcare). HBS-EP+ (GE Healthcare) was used as the running buffer, and the measurement temperature was set to 25° C. Chips produced by immobilizing the antigen peptide by the amine coupling method to a Series S Sencor Chip CM5 (GE Healthcare), or alternatively, chips produced by allowing preliminarily biotinylated antigen peptides to interact with and immobilize onto a Series S Sensor Chip SA (certified) (GE Healthcare) were used. Antibodies of interest were captured onto an antigen peptide-immobilized chip, and allowed to interact to each FcγR diluted with running buffer. To regenerate and repeatedly use the chip, the antibodies captured on the chip were washed off by reacting 10 mM glycine-HCl, pH 1.5.

| He/Con_2b (IIb binding) | Binder |
| --- | --- |
| 56 % of control | B5 |
| 70.4 % of control | B6 |
| 3.2 % of control | B7 |
| 27.9 % of control | B8 |
| 34.9 % of control | B9 |
| 44.1 % of control | B10 |
| 61.4 % of control | B11 |
| 19.9 % of control | B12 |
| 10 % of control | B13 |
| 57.4 % of control | B14 |
| 16.1 % of control | B15 |
| 49.4 % of control | B16 |
| 54.8 % of control | B17 |
| 24.7 % of control | B18 |
| 50.7 % of control | B19 |
| 73.2 % of control | B20 |
| 1.3 % of control | B21 |
| 46.6 % of control | B22 |
| 58.2 % of control | B23 |
| 4.6 % of control | B24 |
| 39.5 % of control | B25 |
| 18.1 % of control | B26 |
| 3.2 % of control | B27 |
| 51.4 % of control | B28 |
| 55.2 % of control | B29 |
| 39.1 % of control | B30 |
| 24.6 % of control | B31 |

What follows are binders tested against T2, FcγRIIa R in the same assay as above.
Description: as §1, §2

| He/Con_2aR (IIaR binding) | Binder |
| --- | --- |
| 75 % of control | B5 |
| 88.9 % of control | B6 |
| 5.8 % of control | B7 |
| 62.7 % of control | B8 |
| 42.2 % of control | B9 |
| 54.8 % of control | B10 |
| 93 % of control | B11 |
| 33.9 % of control | B12 |
| 15.8 % of control | B13 |
| 75.1 % of control | B14 |
| 24.1 % of control | B15 |
| 69.2 % of control | B16 |
| 78.6 % of control | B17 |
| 48.5 % of control | B18 |
| 73.1 % of control | B19 |
| 91.9 % of control | B20 |
| 3.4 % of control | B21 |
| 74.2 % of control | B22 |
| 77.9 % of control | B23 |
| 6.6 % of control | B24 |
| 58.6 % of control | B25 |
| 36.9 % of control | B26 |
| 5.6 % of control | B27 |
| 80.5 % of control | B28 |
| 74.5 % of control | B29 |
| 53.9 % of control | B30 |
| 34.5 % of control | B31 |

The binders below were run against T3, FcγRIIb extracellular domain with … (assay: SPR (Biacore), relative binding, HeCon Ab = 100).

| He/Con_2b | Binder |
| --- | --- |
| 35.3 % of HeCon Ab (=100) | B1 |
| 39.3 % of HeCon Ab (=100) | B2 |
| 19 % of HeCon Ab (=100) | B3 |

What follows are binders tested against T4, FcγRIa extracellular domain with … (assay: SPR (Biacore), relative binding, HeCon Ab = 100).

| He/Con_1a | Binder |
| --- | --- |
| 89.9 % of HeCon Ab (=100) | B1 |
| 96.4 % of HeCon Ab (=100) | B2 |
| 77 % of HeCon Ab (=100) | B3 |
| 78 % of HeCon Ab (=100) | B4 |

The binders below were run against T2, FcγRIIa R (assay: SPR (Biacore T100); He/Con_2aR divided by He/Con_2b (FcγRIIa R over FcγRIIb)).
Description: as §1, §2

| He_2aR/2b (IIaR/IIb) | Binder |
| --- | --- |
| 1.34 ratio | B5 |
| 1.26 ratio | B6 |
| 1.8 ratio | B7 |
| 2.24 ratio | B8 |
| 1.21 ratio | B9 |
| 1.24 ratio | B10 |
| 1.52 ratio | B11 |
| 1.71 ratio | B12 |
| 1.58 ratio | B13 |
| 1.31 ratio | B14 |
| 1.49 ratio | B15 |
| 1.4 ratio | B16 |
| 1.43 ratio | B17 |
| 1.96 ratio | B18 |
| 1.44 ratio | B19 |
| 1.26 ratio | B20 |
| 2.57 ratio | B21 |
| 1.59 ratio | B22 |
| 1.34 ratio | B23 |
| 1.46 ratio | B24 |
| 1.48 ratio | B25 |
| 2.03 ratio | B26 |
| 1.79 ratio | B27 |
| 1.57 ratio | B28 |
| 1.35 ratio | B29 |
| 1.38 ratio | B30 |
| 1.4 ratio | B31 |
